Laboratory results: the supplement of paper PMC9732359
± gives the uncertainty stated by the source.

Assay: protein stability index of a GFP-peptide fusion (yeast GPS) (PSI 1-4); higher = more stable; sorted into four equal gates, so the index is relative within each strain
Method in brief: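 Plasmids in a pooled yeast library fused tiled 17-residue yeast protein peptides downstream of GFP and also expressed Cherry. Mid-log cultures grown without leucine were sorted into four equal gates by GFP/Cherry fluorescence ratio. Each gate's plasmids were PCR-amplified and Illumina-sequenced, and reads were matched to strains by barcodes. The protein stability index is derived by multiplying each gate's read frequency by its gate number and summing the results.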

Sequence	protein stability index (pdr5∆)	protein stability index (san1∆)	protein stability index (ubr1∆)	protein stability index (doa10∆)
DYPFTQLGYIENSFYKK [POP1]	3.14 ± 0.17	2.98 ± 0.1	3.44 ± 0.13	–
KNSFQQALQMKAMDIPI [SWP82]	1.55 ± 0.055	1.37 ± 0.064	1.59 ± 0.038	1.29 ± 0.035
DGFNKTFHDELNLKFKE [YML103C/NUP188]	2.38 ± 0.072	2.69 ± 0.087	2.65 ± 0.054	2.41 ± 0.066
LPLQPIEIDYTVRVDKA [SNF12]	2.19 ± 0.055	2.08 ± 0.064	2.27 ± 0.045	2.39 ± 0.061
TPVQPDLSVTPQKSSSK [YAR002W/NUP60]	3.15 ± 0.04	3.057 ± 0.026	3.093 ± 0.027	3.15 ± 0.04
KPFGSAKSDETKQASSF [YLR335W/NUP2]	2.09 ± 0.12	1.92 ± 0.15	1.06 ± 0.13	–
KTARGKAALERLKVFEG [RPL16A]	2.37 ± 0.089	2.95 ± 0.1	2.1 ± 0.12	2.28 ± 0.15
YQWNLDGLQQLDKYLYV [RPN1]	3.08 ± 0.058	2.49 ± 0.12	2.2 ± 0.046	2.92 ± 0.068
KDTTGPKAISNFLIKLS [YCS4]	2.08 ± 0.1	1.34 ± 0.14	1.52 ± 0.065	2.09 ± 0.11
KKMMNTSDSESTLYKYL [SWI3]	2.87 ± 0.075	2.79 ± 0.083	2.75 ± 0.05	2.94 ± 0.079
AKRNLPHTTLVNECIAQ [CDC53]	2.48 ± 0.059	2.65 ± 0.067	2.68 ± 0.04	2.37 ± 0.072
MSDFQKEKVEEQEQQQQ [RPS20]	3.17 ± 0.15	3.16 ± 0.08	3.51 ± 0.085	2.87 ± 0.15
IFFDEIDAVGGARFDDG [RPT1]	2.77 ± 0.15	3.24 ± 0.088	3.11 ± 0.089	3.01 ± 0.17
RNAALRAKAEAAEFRYK [SCL1]	3.28 ± 0.072	2.93 ± 0.056	3 ± 0.057	2.9 ± 0.068
IAGFDLIGCIDEAKDFI [PUP3]	3.33 ± 0.13	3.08 ± 0.073	3.21 ± 0.055	3.17 ± 0.11
KILGKGRIPNVPVIVKA [RPL28]	1.87 ± 0.081	2.37 ± 0.085	3.24 ± 0.054	2.35 ± 0.065
GNYVIIIGHNPDENKTR [RPL2A]	3.32 ± 0.093	3.12 ± 0.074	2.87 ± 0.082	2.97 ± 0.088
LSLGEAFKKIDAITVKD [COR1]	–	–	3.71 ± 0.19	3.39 ± 0.29
LCQINKCSTRGLSTDHT [YML103C/NUP188]	2.47 ± 0.23	–	3.13 ± 0.18	–
LTLKHRQNKVQHQRIVA [RPN10]	1.97 ± 0.11	2.9 ± 0.25	1.84 ± 0.12	1.54 ± 0.071
SVHHARVLITQRHIAVG [RPS9A]	1.31 ± 0.14	–	–	–
KKLESQESLVKLFTTNE [RPN5]	3.12 ± 0.13	3.22 ± 0.081	2.88 ± 0.12	2.94 ± 0.11
NAVLGLGDMAVCFNNLV [YCS4]	3.32 ± 0.11	2.61 ± 0.098	2.68 ± 0.093	2.71 ± 0.097
ESLILKWDNQSASRAKN [RGR1]	3.24 ± 0.055	2.9 ± 0.05	3.09 ± 0.052	3.16 ± 0.05
LREYLNLPEHIVPGTYI [RPS10A]	3.08 ± 0.064	2.82 ± 0.056	2.75 ± 0.059	3.08 ± 0.078
VPSYIHVEKERASTELS [YIL149C/MLP2]	2.46 ± 0.069	2.76 ± 0.084	2.77 ± 0.054	2.33 ± 0.1
EEYKKSLYAYCHSKLRG [GRR1]	2.31 ± 0.07	2.42 ± 0.09	2.44 ± 0.075	2.29 ± 0.074

Sequence	protein stability index (pdr5∆)	protein stability index (san1∆)	protein stability index (ubr1∆)	protein stability index (doa10∆)
GEYSVKLLKGATLYIPK [FAS2]	2.87 ± 0.21	2.9 ± 0.12	–	–
VWYGLSDGEDGHIPWHI [SSN2]	3.25 ± 0.091	3.07 ± 0.053	3.1 ± 0.062	3.05 ± 0.08
LTYKSELSKSRALQENG [YMR153W/NUP53]	1.95 ± 0.041	2.01 ± 0.085	1.87 ± 0.034	1.89 ± 0.063
FTRPLFVLLEIEPVTKV [YCS4]	2.05 ± 0.07	1.95 ± 0.081	1.97 ± 0.069	1.94 ± 0.062
LTPIQKKIMDETPSRLL [ITC1]	3.39 ± 0.062	3.16 ± 0.049	3.39 ± 0.039	3.33 ± 0.074
QLYHLEQQKEELTDKLS [SMC1]	3.11 ± 0.081	2.78 ± 0.15	3.14 ± 0.11	2.23 ± 0.16
FIMASVGKYDKAIELLE [SRP72]	2.38 ± 0.11	2.54 ± 0.13	3.1 ± 0.2	2.37 ± 0.12
QKQLPQKTRVKLLFDHD [ESC2]	2.93 ± 0.05	3.03 ± 0.039	3 ± 0.039	2.86 ± 0.057
HVKNFGFANSLTFILGQ [YML031W/NDC1]	1.74 ± 0.076	1.42 ± 0.13	2.27 ± 0.059	1.56 ± 0.12
TILQHLSEAWRCWKANI [PRP8]	3.36 ± 0.083	3.5 ± 0.047	3.32 ± 0.068	3.33 ± 0.081
LVNRKPIPFEFQAVIQK [SNF2]	2.73 ± 0.057	2.71 ± 0.048	2.83 ± 0.038	2.65 ± 0.079
VPKEGLFYFDSSFRPCP [BRR2]	3.28 ± 0.058	3.38 ± 0.046	3.14 ± 0.039	3.17 ± 0.068
GGGWDNVDQTKTQCPNY [RPC11]	3.25 ± 0.17	3.07 ± 0.078	3.22 ± 0.09	3.47 ± 0.13
DLTQLLEKERSILDDIK [SMC4]	2.98 ± 0.08	2.66 ± 0.13	3.16 ± 0.043	3.22 ± 0.14
VECAQHCIDYLRKNKLG [SMC4]	1.19 ± 0.068	1.62 ± 0.1	1.36 ± 0.058	1.44 ± 0.07
QLKDMQTIEMITQIVEK [SRB8]	3.19 ± 0.075	2.94 ± 0.059	2.85 ± 0.056	2.87 ± 0.069
HVLYKESKGNAFKHKRA [RPL19A]	2.49 ± 0.12	2.59 ± 0.08	2.46 ± 0.044	2.97 ± 0.079
QAQLRIDDKTQNDELTM [DIS3]	2.6 ± 0.07	2.5 ± 0.073	2.62 ± 0.088	2.42 ± 0.085
QHEQGTFEKHDRVEDIC [RRI2]	–	–	2.97 ± 0.13	2.89 ± 0.091
AHTGATPIAGRFTPGSF [RPS0A]	2.91 ± 0.08	2.52 ± 0.17	2.81 ± 0.12	3.15 ± 0.17
IFWGIRLAKSTENEIPN [BRR2]	1.43 ± 0.055	1.18 ± 0.13	1.49 ± 0.064	1.42 ± 0.089
MSTESALSYAALILADS [RPP1A]	1.97 ± 0.073	1.72 ± 0.073	1.83 ± 0.046	1.75 ± 0.062
NVRSVIRSSRSRGIVIG [RPP1]	3.1 ± 0.078	3.15 ± 0.16	3.2 ± 0.072	3 ± 0.076
YWVPDWDGVIPTPAIIK [RPO21]	2.7 ± 0.096	2.8 ± 0.081	2.8 ± 0.079	2.34 ± 0.14
GQSINDSLKKLLPQWDD [ARP9]	2.86 ± 0.044	2.74 ± 0.045	2.88 ± 0.04	2.88 ± 0.047
IVGPDLAVLALVIVKKG [RPS6A]	1.34 ± 0.048	1.19 ± 0.093	1.36 ± 0.043	1.26 ± 0.035
NPSITRLEEESSWQIYS [RRP4]	3.07 ± 0.21	–	2.07 ± 0.097	–

Sequence	protein stability index (pdr5∆)	protein stability index (san1∆)	protein stability index (ubr1∆)	protein stability index (doa10∆)
VNQEFIFEAISLSDELN [YJL039C/NUP192]	2.65 ± 0.067	2.63 ± 0.051	2.75 ± 0.058	2.71 ± 0.071
DEQQREDNNDAVNSIMA [ECM29]	3.56 ± 0.11	3.07 ± 0.1	3.31 ± 0.074	3.16 ± 0.1
TPRDRRKSVFAPLNFNP [SSN2]	2.57 ± 0.063	2.95 ± 0.081	2.86 ± 0.045	2.68 ± 0.066
ISLYLLNLLSQNNTTKF [RPN12]	1.72 ± 0.054	1.32 ± 0.073	1.36 ± 0.039	1.53 ± 0.044
YKIPKVMKDIYKVENVT [ESC2]	3.52 ± 0.16	–	–	–
VDSQGLPYNWDALEMQW [ARP7]	2.35 ± 0.07	2.64 ± 0.1	1.91 ± 0.073	1.7 ± 0.066
SVSMLLQYYILEYMNTA [RRI2]	2.34 ± 0.089	2.93 ± 0.086	2.19 ± 0.055	2.22 ± 0.079
NKAQAKMDKRAKNSDSA [RPL8A]	3.38 ± 0.11	3.27 ± 0.047	3.54 ± 0.067	3.43 ± 0.094
TILYLNVFHGLCAGANN [IRR1]	1.64 ± 0.083	1.39 ± 0.087	1.34 ± 0.076	1.3 ± 0.071
NAFRKEELLLKDLEIRK [GAL11]	3.09 ± 0.098	3.18 ± 0.079	3.03 ± 0.13	–
SNSANVSSPESEKNKRQ [ITC1]	3.1 ± 0.045	2.95 ± 0.036	3.09 ± 0.033	2.93 ± 0.06
GKIQENIPFWKHVGFEL [SRP72]	2.59 ± 0.055	2.37 ± 0.072	2.57 ± 0.035	2.65 ± 0.053
VLTAAGVERLIFYPDEY [PRE3]	2.94 ± 0.093	2.9 ± 0.074	2.95 ± 0.11	2.78 ± 0.11
ELSDSDRQIINEKMQLL [SIR4]	2.8 ± 0.055	2.56 ± 0.06	2.32 ± 0.047	2.76 ± 0.049
SANTNNTCTISTSKFES [SWP82]	2.51 ± 0.07	2.43 ± 0.055	2.13 ± 0.04	2.59 ± 0.055
DYNDVEVNSKKKNKRAL [BRR2]	2.95 ± 0.07	2.78 ± 0.12	3.02 ± 0.061	3.07 ± 0.098
EYTINLHKRLHGVSFKK [RPL31A]	2.19 ± 0.088	2.14 ± 0.11	1.61 ± 0.061	2.24 ± 0.093
MSTDVAAAQAQSKIDLT [SEM1]	2.82 ± 0.095	2.98 ± 0.079	2.88 ± 0.083	2.91 ± 0.079
GGVPTTSFGQPQSAPNQ [YOR098C/NUP1]	1.99 ± 0.085	2.36 ± 0.11	2.15 ± 0.095	2.33 ± 0.071
TMGEETAKKDMSSTTPK [SNF12]	3.03 ± 0.076	3.31 ± 0.1	3.27 ± 0.079	2.58 ± 0.07
ANFIFSPASGIVDKYIG [RPT4]	2.79 ± 0.097	1.93 ± 0.12	2.42 ± 0.077	2.81 ± 0.067
APEKDIWVGEWKEVLAH [RPO31]	2.17 ± 0.082	2.16 ± 0.12	2.51 ± 0.062	2.47 ± 0.1
ELTQVPSARQKYMVKGG [UBP6]	2.83 ± 0.095	2.95 ± 0.1	2.96 ± 0.11	2.6 ± 0.13
DDYILSGESVMDRDSES [SRB4]	3.6 ± 0.12	3.34 ± 0.15	3.21 ± 0.13	3.45 ± 0.19
AMANAPGNNIPYMNHKN [GAL11]	3.26 ± 0.19	2.6 ± 0.18	2.75 ± 0.16	2.83 ± 0.17
